Laboratory results: paper PMC12440816, “Cell cycle regulation has shaped replication origins in budding yeast” (Nature Structural & Molecular Biology, 2025)

Key:
[1] = target: T1, Mcm3 (Saccharomyces cerevisiae, UniProt P24279 1-971); assay: cryo-EM structure; SH and DH on nucleosome-flanked ARS1 (15 nM) loaded by Orc6-4A ORC (40 nM) pre-phosphorylated by CDK, Cdc6 (40 nM), MCM–Cdt1 (80 nM), 2.2 mM ATP, 30 °C, 30 min; conditions: both partners purified
T1 construct: Mcm3 of S. cerevisiae; Subunit of m5, for the subunit pairs of the SH structure; source: subunit of purified MCM–Cdt1 (previously described methods)

[2] = target: T2, Mcm4 (Saccharomyces cerevisiae, UniProt P30665 1-933); assay: as above; conditions: both partners purified
T2 construct: Mcm4 of S. cerevisiae; Subunit of m5, for the subunit pairs of the SH structure; source: subunit of purified MCM–Cdt1 (previously described methods)
T2 sequence: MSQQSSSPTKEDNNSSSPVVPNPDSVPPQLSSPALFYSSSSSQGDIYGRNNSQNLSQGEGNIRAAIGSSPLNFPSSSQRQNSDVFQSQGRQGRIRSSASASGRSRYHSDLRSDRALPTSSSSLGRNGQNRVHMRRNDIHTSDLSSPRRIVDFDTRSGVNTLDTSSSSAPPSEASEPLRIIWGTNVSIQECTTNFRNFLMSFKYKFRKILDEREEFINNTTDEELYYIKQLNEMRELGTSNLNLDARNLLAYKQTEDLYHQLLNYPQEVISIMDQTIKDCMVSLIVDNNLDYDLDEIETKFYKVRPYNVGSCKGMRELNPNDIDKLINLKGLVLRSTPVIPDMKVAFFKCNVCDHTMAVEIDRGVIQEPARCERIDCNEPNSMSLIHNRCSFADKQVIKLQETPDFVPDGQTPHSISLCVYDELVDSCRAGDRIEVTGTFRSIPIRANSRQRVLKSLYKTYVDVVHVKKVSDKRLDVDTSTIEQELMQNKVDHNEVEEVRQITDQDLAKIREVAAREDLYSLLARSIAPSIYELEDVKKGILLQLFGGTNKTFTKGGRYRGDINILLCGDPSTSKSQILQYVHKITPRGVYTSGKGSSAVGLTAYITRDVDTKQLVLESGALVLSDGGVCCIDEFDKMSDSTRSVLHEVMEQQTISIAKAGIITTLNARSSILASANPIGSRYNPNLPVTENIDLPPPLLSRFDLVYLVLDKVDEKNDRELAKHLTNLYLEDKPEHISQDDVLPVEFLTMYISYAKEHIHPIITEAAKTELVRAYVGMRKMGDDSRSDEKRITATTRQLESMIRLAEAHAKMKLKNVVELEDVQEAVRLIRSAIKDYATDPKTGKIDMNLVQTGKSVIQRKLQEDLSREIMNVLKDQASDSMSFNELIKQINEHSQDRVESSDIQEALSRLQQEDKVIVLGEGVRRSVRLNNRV

T1 sequence (P24279 whole entry): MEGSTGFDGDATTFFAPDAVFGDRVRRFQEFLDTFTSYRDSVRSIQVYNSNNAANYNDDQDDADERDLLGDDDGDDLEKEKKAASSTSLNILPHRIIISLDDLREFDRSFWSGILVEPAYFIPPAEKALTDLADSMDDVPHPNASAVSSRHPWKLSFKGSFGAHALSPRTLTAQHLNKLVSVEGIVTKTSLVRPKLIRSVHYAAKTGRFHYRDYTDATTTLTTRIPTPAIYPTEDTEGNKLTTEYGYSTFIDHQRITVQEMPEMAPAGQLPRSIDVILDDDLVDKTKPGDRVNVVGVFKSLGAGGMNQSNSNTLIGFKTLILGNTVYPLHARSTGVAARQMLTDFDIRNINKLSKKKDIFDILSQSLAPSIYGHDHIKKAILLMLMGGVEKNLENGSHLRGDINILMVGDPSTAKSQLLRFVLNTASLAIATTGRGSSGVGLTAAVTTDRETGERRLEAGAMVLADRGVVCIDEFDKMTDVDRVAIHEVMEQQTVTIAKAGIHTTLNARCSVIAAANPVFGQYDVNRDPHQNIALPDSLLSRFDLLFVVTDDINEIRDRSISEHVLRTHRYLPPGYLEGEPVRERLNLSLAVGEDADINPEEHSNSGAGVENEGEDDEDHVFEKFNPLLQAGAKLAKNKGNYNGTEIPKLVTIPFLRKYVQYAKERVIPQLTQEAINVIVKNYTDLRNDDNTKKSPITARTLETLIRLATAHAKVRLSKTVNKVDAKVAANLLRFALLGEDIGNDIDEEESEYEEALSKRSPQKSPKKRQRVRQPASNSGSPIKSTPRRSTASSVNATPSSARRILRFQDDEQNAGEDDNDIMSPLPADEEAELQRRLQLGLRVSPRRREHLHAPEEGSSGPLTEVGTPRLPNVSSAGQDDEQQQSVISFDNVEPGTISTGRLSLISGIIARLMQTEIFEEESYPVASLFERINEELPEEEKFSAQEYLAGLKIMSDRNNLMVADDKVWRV

binding result [1]: binds
binding result [2]: binds
B1: Mcm7 (natural protein, Saccharomyces cerevisiae)
chain: MSAALPSIQLPVDYNNLFNEITDFLVTFKQDTLSSDATRNENEDENLDAENIEQHLLEKGPKYMAMLQKVANRELNSVIIDLDDILQYQNEKFLQGTQADDLVSAIQQNANHFTELFCRAIDNNMPLPTKEIDYKDDVLDVILNQRRLRNERMLSDRTNEIRSENLMDTTMDPPSSMNDALREVVEDETELFPPNLTRRYFLYFKPLSQNCARRYRKKAISSKPLSVRQIKGDFLGQLITVRGIITRVSDVKPAVEVIAYTCDQCGYEVFQEVNSRTFTPLSECTSEECSQNQTKGQLFMSTRASKFSAFQECKIQELSQQVPVGHIPRSLNIHVNGTLVRSLSPGDIVDVTGIFLPAPYTGFKALKAGLLTETYLEAQFVRQHKKKFASFSLTSDVEERVMELITSGDVYNRLAKSIAPEIYGNLDVKKALLLLLVGGVDKRVGDGMKIRGDINVCLMGDPGVAKSQLLKAICKISPRGVYTTGKGSSGVGLTAAVMKDPVTDEMILEGGALVLADNGICCIDEFDKMDESDRTAIHEVMEQQTISISKAGINTTLNARTSILAAANPLYGRYNPRLSPLDNINLPAALLSRFDILFLMLDIPSRDDDEKLAEHVTYVHMHNKQPDLDFTPVEPSKMREYIAYAKTKRPVMSEAVNDYVVQAYIRLRQDSKREMDSKFSFGQATPRTLLGIIRLSQALAKLRLADMVDIDDVEEALRLVRVSKESLYQETNKSKEDESPTTKIFTIIKKMLQETGKNTLSYENIVKTVRLRGFTMLQLSNCIQEYSYLNVWHLINEGNTLKFVDDGTMDTDQEDSLVSTPKLAPQTTASANVSAQDSDIDLQDA
notes: Mcm7 of S. cerevisiae; Subunit of m5, for the subunit pairs of the SH structure; source: subunit of purified MCM–Cdt1 (previously described methods)
